Columns and labels:
[1] = target: T1, human CD47 extracellular domain (human, UniProt Q08722 19-139); assay: method not given; human CD47, form not stated there
T1 construct: extracellular domain; also called human CD47 ECD; Hu CD47

human CD47 on cells [2] = target: T2, human CD47 on cells (human, UniProt Q08722 19-323); assay: blocking of human SIRPα binding to OCI-Ly3 cells; competitor SIRPα; TPP-23, parental high-affinity anti-CD47 IgG1; OCI-Ly3 cells
T2 construct: whole, on cells; also called cell surface CD47; CD47 on Raji, OCI-Ly3, Fadu cells, human RBCs, platelets and blood cells
T2 sequence (Q08722 19-323): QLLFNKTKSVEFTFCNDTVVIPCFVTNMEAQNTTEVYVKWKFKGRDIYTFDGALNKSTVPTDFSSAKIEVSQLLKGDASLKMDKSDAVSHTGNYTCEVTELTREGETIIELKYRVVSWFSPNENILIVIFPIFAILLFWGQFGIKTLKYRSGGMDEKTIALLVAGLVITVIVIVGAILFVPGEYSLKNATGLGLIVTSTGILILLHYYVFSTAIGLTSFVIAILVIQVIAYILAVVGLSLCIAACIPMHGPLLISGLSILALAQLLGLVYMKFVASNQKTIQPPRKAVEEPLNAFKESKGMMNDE

human CD47 on cells [3] = target: T2, human CD47 on cells; assay: cell-based or functional assay
[4] = target: T1, human CD47 extracellular domain; assay: column HUMAN CD47 KD (µM); no assay named on the sheet, SPR with the CD47 ECD per Example 4

T1 sequence (Q08722 19-139 limits assumed): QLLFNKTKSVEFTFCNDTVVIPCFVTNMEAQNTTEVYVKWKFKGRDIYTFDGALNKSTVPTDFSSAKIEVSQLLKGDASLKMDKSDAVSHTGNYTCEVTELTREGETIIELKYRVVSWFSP

| Binder | Kd [1] | IC50 (human CD47 on cells [2]) | EC50 of macrophage phagocytosis of OCI-Ly3 cells, OCI-Ly3 Mφ EC50 (µg/mL) REPEAT (human CD47 on cells [3]) | EC50 of macrophage phagocytosis of OCI-Ly3 cells, column OCI-Ly3 Mφ EC50 (human CD47 on cells [3]) | Kd [4] |
| --- | --- | --- | --- | --- | --- |
| CC-90002 (antibody, V domains shown, also called anti-CD47 monoclonal antibody CC-90002) VH: QMQLVQSGAEVKKTGSSVKVSCKASGFNIKDYYLHWVRQAPGQALEWMGWIDPDQGDTEYAQKFQDRVTITRDRSMSTAYMELSSLRSEDTAMYYCNAAYGSSSYPMDYWGQGTTVTVSS VL: NIQMTQSPSAMSASVGDRVTITCKASQDIHRYLSWFQQKPGKVPKHLIYRANRLVSGVPSRFSGSGSGTEFTLTISSLQPEDFATYYCLQYDEFPYTFGGGTKVEIK | 0.54 nM | – | – | – | – |
| TPP-23 (408_437 Fab with IgG1) (antibody, V domains shown, The crystal structure was made with an anti-CD47 Fab of this antibody; also called parental CD47 mAb) VH: QMQLVQSGAEVKKPGSSVKVSCKASGFNIKDYYLHWVRQAPGKGLEWMGWIDPDQGDTEYAQKFQGRVTITRDRSTSTAYMELRSLRAEDTAVYYCNAAYGSSSYPMDYWGQGTLVTVSS VL: NIQMTQSPSSLSASVGDRVTITCRASQDIHRYLSWFQQKPGKVPKHLIYRANRLVSGVPSRFSGSGSGTEFTLTISSLQPEDFATYYCLQYDEFPYTFGGGTKVEIK | – | 0.11 nM | – | – | – |

Continued, values first:

| Kd [1] | IC50 (human CD47 on cells [2]) | EC50 of macrophage phagocytosis of OCI-Ly3 cells, OCI-Ly3 Mφ EC50 (µg/mL) REPEAT (human CD47 on cells [3]) | EC50 of macrophage phagocytosis of OCI-Ly3 cells, column OCI-Ly3 Mφ EC50 (human CD47 on cells [3]) | Kd [4] | Binder |
| --- | --- | --- | --- | --- | --- |
| – | – | 0.45 µg/mL | 0.5 µg/mL | 2530 nM | TPP-1361 (bispecific antibody, human IgG1, kappa, Four-chain IgG1 heterodimer; also called CD47xCD20 bispecific) light 1: NIQMTQSPSSLSASVGDRVTITCQASQDIHRYLSWFQQDPGTVPQHLIYRESRFVDGVPSRFSGSGSGTEFTLTISSLQPEDFATYYCLQYDEFPYTFGGGTKVEIKRTVAAPSVFIFPPSDEELKSGTASVVCWLNNFYPREAKVQWKVDNALQSGNSEESVTEQDSKDSTYSLSSTLELSKADYEKHKVYACEVTHQGLSSPVTKSFNRGEC heavy 1: QMQLVQSGAEVKKPGSSVKVSCKASGFNIKDYYLHWVRQAPGQGLEWMGWIDPDQGDTYYAQKFQGRVTITRDRSTSTAYMELASLTAEDTAVYYCNAAYGESSYPMDYWGQGTLVTVSSASTKGPSVFPLAPSSKSTSGGTAALGCLVKDYFPEPVTVSWNSGALTSGVHTFPAVLKSSGLYSLSSVVTVPSSSLGTQTYICNVNHKPSNTKVDKKVEPKSCDKTHTCPPCPAPELLGGPSVFLFPPKPKDTLMISRTPEVTCVVVDVSHEDPEVKFNWYVDGVEVHNAKTKPREEQYNSTYRVVSVLTVLHQDWLNGKEYKCKVSNKALPAPIEKTISKAKGQPREPQVYVLPPSREEMTKNQVSLLCLVKGFYPSDIAVEWESNGQPENNYLTWPPVLDSDGSFFLYSKLTVDKSRWQQGNVFSCSVMHEALHNHYTQKSLSLSPGK light 2: QIVLSQSPAILSASPGEKVTMTCRASSSVSYIHWFQQKPGSSPKPWIYATSNLASGVPVRFSGSGSGTSYSLTISRVEAEDAATYYCQQWTSNPPTFGGGTKLEIKRTVAAPSVAIFPPSDERLKSGTASVVCVLNNFYPREAKVQWKVDNALQSGNSQESVTEQDSKDSTYSLSSRLTLSKADYEKHKVYACEVTHQGLSSPVTKSFNRGEC heavy 2: QVQLQQPGAELVKPGASVKMSCKASGYTFTSYNMHWVKQTPGRGLEWIGAIYPGNGDTSYNQKFKGKATLTADKSSSTAYMQLSSLTSEDSAVYYCARSTYYGGDWYFNVWGAGTTVTVSAASTKGPSVFPLAPSSKSTSGGTAWLGCEVTDYFPEPVTVSWNSGALTSGVHTFPAVLESSGLYSLSSVVTVPSSSLGTQTYICNVNHKPSNTKVDKKVEPKSCDKTHTCPPCPAPELLGGPSVFLFPPKPKDTLMISRTPEVTCVVVDVSHEDPEVKFNWYVDGVEVHNAKTKPREEQYNSTYRVVSVLTVLHQDWLNGKEYKCKVSNKALPAPIEKTISKAKGQPREPQVYVYPPSREEMTKNQVSLTCLVKGFYPSDIAVEWESNGQPENNYKTTPPVLDSDGSFALVSKLTVDKSRWQQGNVFSCSVMHEALHNHYTQKSLSLSPGK |
| – | – | 0.046 µg/mL | 0.064 µg/mL | 430 nM | TPP-1367 (bispecific antibody, human IgG1, kappa, IgG1 1+1 heterodimer; also called CD47/CD20 TPP1367; CD47xCD20 bispecific) anti-CD47 light chain: NIQMTQSPSSLSASVGDRVTITCRASQDIHRYLSWFQQKPGKVPKHLIYRANRLVSGVPSRFSGSGSGTEFTLTISSLQPEDFATYYCLQYDEFPYTFGGGTKVEIKRTVAAPSVFIFPPSDEELKSGTASVVCWLNNFYPREAKVQWKVDNALQSGNSEESVTEQDSKDSTYSLSSTLELSKADYEKHKVYACEVTHQGLSSPVTKSFNRGEC anti-CD47 heavy chain: QMQLVQSGAEVKKPGSSVKVSCKASGFNIKDYYLHWVRQAPGKGLEWMGWIDPDQGDTYYAQKFQGRVTITRDRSTSTAYMELRSLRAEDTAVYYCNAAYGESSYPMDYWGQGTLVTVSSASTKGPSVFPLAPSSKSTSGGTAALGCLVKDYFPEPVTVSWNSGALTSGVHTFPAVLKSSGLYSLSSVVTVPSSSLGTQTYICNVNHKPSNTKVDKKVEPKSCDKTHTCPPCPAPELLGGPSVFLFPPKPKDTLMISRTPEVTCVVVDVSHEDPEVKFNWYVDGVEVHNAKTKPREEQYNSTYRVVSVLTVLHQDWLNGKEYKCKVSNKALPAPIEKTISKAKGQPREPQVYVLPPSREEMTKNQVSLLCLVKGFYPSDIAVEWESNGQPENNYLTWPPVLDSDGSFFLYSKLTVDKSRWQQGNVFSCSVMHEALHNHYTQKSLSLSPGK anti-CD20 light chain: QIVLSQSPAILSASPGEKVTMTCRASSSVSYIHWFQQKPGSSPKPWIYATSNLASGVPVRFSGSGSGTSYSLTISRVEAEDAATYYCQQWTSNPPTFGGGTKLEIKRTVAAPSVAIFPPSDERLKSGTASVVCVLNNFYPREAKVQWKVDNALQSGNSQESVTEQDSKDSTYSLSSRLTLSKADYEKHKVYACEVTHQGLSSPVTKSFNRGEC anti-CD20 heavy chain: QVQLQQPGAELVKPGASVKMSCKASGYTFTSYNMHWVKQTPGRGLEWIGAIYPGNGDTSYNQKFKGKATLTADKSSSTAYMQLSSLTSEDSAVYYCARSTYYGGDWYFNVWGAGTTVTVSAASTKGPSVFPLAPSSKSTSGGTAWLGCEVTDYFPEPVTVSWNSGALTSGVHTFPAVLESSGLYSLSSVVTVPSSSLGTQTYICNVNHKPSNTKVDKKVEPKSCDKTHTCPPCPAPELLGGPSVFLFPPKPKDTLMISRTPEVTCVVVDVSHEDPEVKFNWYVDGVEVHNAKTKPREEQYNSTYRVVSVLTVLHQDWLNGKEYKCKVSNKALPAPIEKTISKAKGQPREPQVYVYPPSREEMTKNQVSLTCLVKGFYPSDIAVEWESNGQPENNYKTTPPVLDSDGSFALVSKLTVDKSRWQQGNVFSCSVMHEALHNHYTQKSLSLSPGK |

— patent US20230365681A1 (CELGENE, published 2023)
